The assay has as its target T1, recombinant soluble CD22 ectodomain (human, UniProt P20273 20-687).
T1 construct: extracellular domain; Staining reagent used to detect the 9A8 CAR on T cells; also called soluble recombinant CD22 ectodomain
T1 sequence (looked up): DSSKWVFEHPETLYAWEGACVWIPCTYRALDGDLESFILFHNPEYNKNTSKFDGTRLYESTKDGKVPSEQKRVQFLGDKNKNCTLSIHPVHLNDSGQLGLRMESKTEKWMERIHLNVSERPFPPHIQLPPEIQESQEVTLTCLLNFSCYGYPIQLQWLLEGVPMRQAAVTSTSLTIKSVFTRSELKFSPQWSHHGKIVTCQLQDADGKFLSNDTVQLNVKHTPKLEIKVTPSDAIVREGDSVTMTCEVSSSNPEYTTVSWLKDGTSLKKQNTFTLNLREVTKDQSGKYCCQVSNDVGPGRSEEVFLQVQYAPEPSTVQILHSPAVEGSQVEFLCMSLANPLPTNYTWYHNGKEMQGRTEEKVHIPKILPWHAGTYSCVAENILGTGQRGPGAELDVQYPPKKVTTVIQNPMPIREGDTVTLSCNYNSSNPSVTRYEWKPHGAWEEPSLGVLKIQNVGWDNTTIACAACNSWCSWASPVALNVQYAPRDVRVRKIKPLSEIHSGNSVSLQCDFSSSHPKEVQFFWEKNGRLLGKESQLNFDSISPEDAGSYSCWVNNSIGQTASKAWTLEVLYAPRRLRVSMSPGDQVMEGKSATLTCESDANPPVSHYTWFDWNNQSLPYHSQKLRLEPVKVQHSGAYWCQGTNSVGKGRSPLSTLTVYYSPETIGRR
The assay can be described thus: flow cytometry of CD19 CATCAR T cells stained with anti-idiotype and soluble recombinant CD22 ectodomain [cont.) F]. The source says: FIG. 4. AUTO1/22 CAR T cells enhanced activity in vivo. A) Schedule of the in vivo model. B) and C) NSG mice were intravenously injected with 1×10⁶ Nalm-6 WT (B) or Nalm-6 CD19KO (neg) cells (C), and treated with non-transduced (NT), AUTO1 or AUTO1/22 normal donor T cells. Serial bioluminescence imaging was taken. All cells expressed HA-tagged firefly Luciferase. D) and E) Spider plot showing bioluminescence flux for each mouse over time; Nalm-6 WT (D) or Nalm-6 CD19KO (neg) cells (E). F) In vivo expansion of the different CAR T cell populations. Differential engraftment of different CAR T cell populations. The proportion of the different subpopulation of CAR T cells was determined by staining for AUTO1 with anti-idiotype and 9A8CAR with soluble recombinant CD22 ectodomain. […]
Next, the function of CD19 CAR T cells (AUTO1) and CD19/22 co-transduced CAR T cells (AUTO1/22) in vivo was determined. […] NALM6 cells were first engrafted in NSG mice by tail-vein injection, and their engraftment determined by bioluminescence imaging (BLI). […] NALM6 burden was measured sequentially using BLI. […] NALM6 burden and CAR T-cell engraftment was determined by flow cytometry.
Finally, the proportion of AUTO1, CD22CAR and AUTO1/22 CAR T cells engrafted in mice at sacrifice was determined by flow-cytometry of marrow aspirate.

This note sets out measurements from patent publication US20260097122A1 (AUTOLUS, published 2026).

B1: CD19 CATCAR (second-generation CD19 CAR, aCD19cat-CD8STK-41BBZ) (other)
chain: QVQLQQSGPELVKPGASVKISCKASGYAFSSSWMNWVKQRPGKGLEWIGRIYPGDEDTNYSGKFKDKATLTADKSSTTAYMQLSSLTSEDSAVYFCARSLLYGDYLDYWGQGTTLTVSSGGGGSGGGGSGGGGSQIVLTQSPAIMSASPGEKVTMTCSASSSVSYMHWYQQKSGTSPKRWIYDTSKLASGVPDRFSGSGSGTSYFLTINNMEAEDAATYYCQQWNINPLTFGAGTKLELKRSDPTTTPAPRPPTPAPTIASQPLSLRPEACRPAAGGAVHTRGLDFACDIYIWAPLAGTCGVLLLSLVITLYCKRGRKKLLYIFKQPFMRPVQTTQEEDGCSCRFPEEEEGGCELRVKFSRSADAPAYQQGQNQLYNELNLGRREEYDVLDKRRGRDPEMGGKPRRKNPQEGLYNELQKDKMAEAYSEIGMKGERRRGKGHDGLYQGLSTATKDTYDALHMQALPPR
notes: Chimeric antigen receptor expressed on the surface of transduced T cells: CAT19 scFv, CD8 stalk spacer and transmembrane domain, 4-1BB-CD3 zeta endodomain; also called CAT19CAR; CATi9CAR
In the case of B1, the binding result is on record as “no binding”.
